Test results from patent publication US20250188189A1 (published 2025).
Where two headings read alike, the source gives them in different places.

B1: TPP-26935 (antibody, V domains shown)
VH: EVQLVESGGGLVQPGGSLRLSCAASGFTFSNYYINWVRQAPGKGLEWVGDIRLKSNNYEKHYAESVKGRFTISRDDSKNSLYLQMNSLKTEDTAVYYCAREGDYFDYWGQGTLVTVSS
VL: EIVLTQSPGTLSLSPGERATLSCRASQSVSSFGATFMHWYQQKPGQPPKLLIYLASNRASGVPDRFSGSGSGTDFTLKISRVEAEDVGVYYCQQNNEDPYTFGQGTKLEIKR
B2: TPP-26871 (antibody, V domains shown)
VH: EVQLVESGGGLVQPGGSLRLSCAASGFTFSNYYMNWVRQAPGKGLEWVSYISSSSSTIYYADSVKGRFTISRDDSKNSLYLQMNSLKTEDTAVYYCAREGDYFDYWGQGTLVTVSS
VL: DIVLTQSPASLAVSPGQRATITCKASQSVSSFGATFMHWYQQKPGQPPKLLIYLASNRASGVPDRFSGSGSGTDFTLTINPVEADDTANYYCQQNNEDPYTFGQGTKLEIKR
B3: TPP-26873 (antibody, V domains shown)
VH: EVQLVESGGGLVQPGGSLRLSCAASGFTFSNYYMNWVRQAPGKGLEWVSYISSSSSTIYYADSVKGRFTISRDDSKNSLYLQMNSLKTEDTAVYYCAREGDYFDYWGQGTLVTVSS
VL: DIVLTQSPASLAVSPGQRATITCKASQSVSSFGATFMHWYLQKPGQSPQLLIYLASNRASGVPDRFSGSGSGTDFTLKISRVEAEDVGVYYCQQNNEDPYTFGQGTKLEIKR
B4: TPP-26918 (antibody, V domains shown)
VH: EVQLVESGGGLVQPGGSLRLSCAASGFTFSNYYMSWVRQAPGKGLEWVGDIRLKSNNYEKHYAESVKGRFTISRDDSKNSLYLQMNSLKTEDTAVYYCAREGDYFDYWGQGTLVTVSS
VL: DIVLTQSPASLAVSPGQRATITCKASESVDSFGATFMHWYQQKPGQPPKLLIYLASNRASGVPDRFSGSGSGTDFTLKISRVEAEDVGVYYCQQNNEDPYTFGQGTKLEIKR
B5: TPP-26925 (antibody, V domains shown)
VH: EVQLVESGGGLVQPGGSLRLSCAASGFTFSNYYMSWVRQAPGKGLEWVGDIRLKSNNYEKHYAESVKGRFTISRDDSKNSLYLQMNSLKTEDTAVYYCAREGDYFDYWGQGTLVTVSS
VL: DIVLTQSPASLAVSPGQRATITCKASQSVSSFGATFMHWYLQKPGQSPQLLIYLASNRASGVPDRFSGSGSGTDFTLKISRVEAEDVGVYYCQQNNEDPYTFGQGTKLEIKR
B6: TPP-26921 (antibody, V domains shown)
VH: EVQLVESGGGLVQPGGSLRLSCAASGFTFSNYYMSWVRQAPGKGLEWVGDIRLKSNNYEKHYAESVKGRFTISRDDSKNSLYLQMNSLKTEDTAVYYCAREGDYFDYWGQGTLVTVSS
VL: EIVLTQSPGTLSLSPGERATLSCRASQSVSSFGATFMHWYQQKPGQPPKLLIYLASNRASGVPDRFSGSGSGTDFTLTINPVEADDTANYYCQQNNEDPYTFGQGTKLEIKR
B7: TPP-26874 (antibody, V domains shown)
VH: EVQLVESGGGLVQPGGSLRLSCAASGFTFSNYYMNWVRQAPGKGLEWVSYISSSSSTIYYADSVKGRFTISRDDSKNSLYLQMNSLKTEDTAVYYCAREGDYFDYWGQGTLVTVSS
VL: DIVLTQSPASLAVSPGQRATITCKASQSVSSFGATFMHWYQQKPGQPPKLLIYLASNRASGVPDRFSGSGSGTDFTLKISRVEAEDVGVYYCQQNNEDPYTFGQGTKLEIKR
B8: TPP-26894 (antibody, V domains shown)
VH: EVQLVESGGGLVQPGGSLRLSCAASGFTFSNYYMNWVRQAPGQGLEWMGRIIPILGIANYAQKFQGRFTISRDDSKNSLYLQMNSLKTEDTAVYYCAREGDYFDYWGQGTLVTVSS
VL: EIVLTQSPGTLSLSPGERATLSCRASQSVSSFGATFMHWYLQKPGQSPQLLIYLASNRASGVPDRFSGSGSGTDFTLKISRVEAEDVGVYYCQQNNEDPYTFGQGTKLEIKR
B9: TPP-26864 (antibody, V domains shown)
VH: EVQLVESGGGLVQPGGSLRLSCAASGFTFSNYYMNWVRQAPGKGLEWVSYISSSSSTIYYADSVKGRFTISRDDSKNSLYLQMNSLKTEDTAVYYCAREGDYFDYWGQGTLVTVSS
VL: EIVLTQSPGTLSLSPGERATLSCRASESVDSFGATFMHWYLQKPGQSPQLLIYLASNRASGVPDRFSGSGSGTDFTLKISRVEAEDVGVYYCQQNNEDPYTFGQGTKLEIKR
B10: TPP-26882 (antibody, V domains shown)
VH: EVQLVESGGGLVQPGGSLRLSCAASGFTFSNYYMNWVRQAPGKGLEWVGRIKSKTDGGTTDYAAPVKGRFTISRDDSKNSLYLQMNSLKTEDTAVYYCAREGDYFDYWGQGTLVTVSS
VL: EIVLTQSPGTLSLSPGERATLSCRASQSVSSFGATFMHWYQQKPGQPPKLLIYLASNRASGVPDRFSGSGSGTDFTLTINPVEADDTANYYCQQNNEDPYTFGQGTKLEIKR
B11: TPP-26862 (antibody, V domains shown)
VH: EVQLVESGGGLVQPGGSLRLSCAASGFTFSNYYMNWVRQAPGKGLEWVSYISSSSSTIYYADSVKGRFTISRDDSKNSLYLQMNSLKTEDTAVYYCAREGDYFDYWGQGTLVTVSS
VL: DIVMTQSPLSLPVTPGEPASISCRSSESVDSFGATFMHWYQQKPGQPPKLLIYLASNRASGVPDRFSGSGSGTDFTLKISRVEAEDVGVYYCQQNNEDPYTFGQGTKLEIKR
B12: TPP-26863 (antibody, V domains shown)
VH: EVQLVESGGGLVQPGGSLRLSCAASGFTFSNYYMNWVRQAPGKGLEWVSYISSSSSTIYYADSVKGRFTISRDDSKNSLYLQMNSLKTEDTAVYYCAREGDYFDYWGQGTLVTVSS
VL: DIVMTQSPLSLPVTPGEPASISCRSSESVDSFGATFMHWYLQKPGQSPQLLIYLASNRASGVPDRFSGSGSGTDFTLKISRVEAEDVGVYYCQQNNEDPYTFGQGTKLEIKR
B13: TPP-26924 (antibody, V domains shown)
VH: EVQLVESGGGLVQPGGSLRLSCAASGFTFSNYYMSWVRQAPGKGLEWVGDIRLKSNNYEKHYAESVKGRFTISRDDSKNSLYLQMNSLKTEDTAVYYCAREGDYFDYWGQGTLVTVSS
VL: DIVLTQSPASLAVSPGQRATITCKASQSVSSFGATFMHWYLQKPGQSPQLLIYLASNRASGVPDRFSGSGSGTDFTLTINPVEADDTANYYCQQNNEDPYTFGQGTKLEIKR
B14: TPP-26872 (antibody, V domains shown)
VH: EVQLVESGGGLVQPGGSLRLSCAASGFTFSNYYMNWVRQAPGKGLEWVSYISSSSSTIYYADSVKGRFTISRDDSKNSLYLQMNSLKTEDTAVYYCAREGDYFDYWGQGTLVTVSS
VL: DIVLTQSPASLAVSPGQRATITCKASQSVSSFGATFMHWYLQKPGQSPQLLIYLASNRASGVPDRFSGSGSGTDFTLTINPVEADDTANYYCQQNNEDPYTFGQGTKLEIKR
B15: TPP-26869 (antibody, V domains shown)
VH: EVQLVESGGGLVQPGGSLRLSCAASGFTFSNYYMNWVRQAPGKGLEWVSYISSSSSTIYYADSVKGRFTISRDDSKNSLYLQMNSLKTEDTAVYYCAREGDYFDYWGQGTLVTVSS
VL: EIVLTQSPGTLSLSPGERATLSCRASQSVSSFGATFMHWYQQKPGQPPKLLIYLASNRASGVPDRFSGSGSGTDFTLTINPVEADDTANYYCQQNNEDPYTFGQGTKLEIKR
B16: TPP-24897 (antibody, V domains shown)
VL: EIVLTQSPGTLSLSPGERATLSCRASESVDSFGATFMHWYLQKPGQSPQLLIYLASNLESGVPARFSGSGSGTDFTLKISRVEAEDVGVYYCQQNNEDPYTFGQGTKLEIK
B17: TPP-26926 (antibody, V domains shown)
VH: EVQLVESGGGLVQPGGSLRLSCAASGFTFSNYYMSWVRQAPGKGLEWVGDIRLKSNNYEKHYAESVKGRFTISRDDSKNSLYLQMNSLKTEDTAVYYCAREGDYFDYWGQGTLVTVSS
VL: DIVLTQSPASLAVSPGQRATITCKASQSVSSFGATFMHWYQQKPGQPPKLLIYLASNRASGVPDRFSGSGSGTDFTLKISRVEAEDVGVYYCQQNNEDPYTFGQGTKLEIKR
B18: TPP-24861 (antibody, V domains shown)
VL: DIVMTQSPLSLPVTPGEPASISCRSSESVDSFGATFMHWYQQKPGQPPKLLIYLASNRASGVPDRFSGSGSGTDFTLKISRVEAEDVGVYYCQQNNEDPYTFGQGTKLEIK
B19: TPP-24907 (antibody, V domains shown)
VL: EIVLTQSPGTLSLSPGERATLSCRASQSVSSFGATFMHWYQQKPGQPPKLLIYLASNRASGVPDRFSGSGSGTDFTLTINPVEADDTANYYCQQNNEDPYTFGQGTKLEIK
B20: TPP-26920 (antibody, V domains shown)
VH: EVQLVESGGGLVQPGGSLRLSCAASGFTFSNYYMSWVRQAPGKGLEWVGDIRLKSNNYEKHYAESVKGRFTISRDDSKNSLYLQMNSLKTEDTAVYYCAREGDYFDYWGQGTLVTVSS
VL: EIVLTQSPGTLSLSPGERATLSCRASQSVSSFGATFMHWYLQKPGQSPQLLIYLASNRASGVPDRFSGSGSGTDFTLKISRVEAEDVGVYYCQQNNEDPYTFGQGTKLEIKR
B21: TPP-26934 (antibody, V domains shown)
VH: EVQLVESGGGLVQPGGSLRLSCAASGFTFSNYYINWVRQAPGKGLEWVGDIRLKSNNYEKHYAESVKGRFTISRDDSKNSLYLQMNSLKTEDTAVYYCAREGDYFDYWGQGTLVTVSS
VL: EIVLTQSPGTLSLSPGERATLSCRASQSVSSFGATFMHWYQQKPGQPPKLLIYLASNRASGVPDRFSGSGSGTDFTLTINPVEADDTANYYCQQNNEDPYTFGQGTKLEIKR
B22: TPP-24833 (antibody, V domains shown)
VL: DIVLTQSPASLAVSPGQRATITCKASESVDSFGATFMHWYLQKPGQSPQLLIYLASNLESGVPARFSGSGSGTDFTLKISRVEAEDVGVYYCQQNNEDPYTFGQGTKLEIK

How the values were obtained:
[1] = target: T1, plasma-derived human activated protein C (APC) (UniProt P04070 43-461); assay: SPR
T1 chain: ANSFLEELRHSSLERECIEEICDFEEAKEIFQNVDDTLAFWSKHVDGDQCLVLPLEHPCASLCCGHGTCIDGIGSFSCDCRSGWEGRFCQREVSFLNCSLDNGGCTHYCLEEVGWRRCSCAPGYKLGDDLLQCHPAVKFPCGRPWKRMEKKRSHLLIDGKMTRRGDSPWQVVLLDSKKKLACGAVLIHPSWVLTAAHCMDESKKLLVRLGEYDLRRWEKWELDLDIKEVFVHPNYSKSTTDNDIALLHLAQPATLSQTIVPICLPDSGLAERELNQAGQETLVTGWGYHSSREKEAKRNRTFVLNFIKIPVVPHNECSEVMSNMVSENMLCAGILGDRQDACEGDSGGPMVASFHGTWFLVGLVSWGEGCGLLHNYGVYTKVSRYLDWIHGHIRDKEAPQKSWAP

[2] = target: T1, plasma-derived human activated protein …; assay: SPR

Row | Binder | Kd [1] [nM] | Kd [2] [nM]
1 | B1 | 18.6 | 
2 | B2 | 13.8 | 
3 | B3 | 11.2 | 
4 | B4 | 13.4 | 
5 | B5 | 27.9 | 
6 | B6 | 31.1 | 
7 | B7 | 13.2 | 
8 | B8 | 142 | 
9 | B9 | 8.79 | 
10 | B10 | 169 | 
11 | B11 | 13.5 | 
12 | B12 | 11.2 | 
13 | B13 | 27.5 | 
14 | B14 | 12.8 | 
15 | B15 | 13.5 | 
16 | B16 |  | 47.9
17 | B17 | 30.5 | 
18 | B18 |  | 24.1
19 | B19 |  | 45.9
20 | B20 | 28.1 | 
21 | B21 | 19.8 | 
22 | B22 |  | 49
